Test results from paper PMC6555819, “Comprehensive study of nuclear receptor DNA binding provides a revised framework for understanding receptor specificity”.

B1: NRC3_wobSeed136_DR5_C24A_o1 (dsDNA)
DNA 1: GCTAGCCTAGGTCATTCAGGGGCAAGTATAGAAAGCGCGATTGACAGCGTAGAATGAAGG
DNA 2: CCTTCATTCTACGCTGTCAATCGCGCTTTCTATACTTGCCCCTGAATGACCTAGGCTAGC
B2: NRC3_random_hg19_217_o1 (dsDNA)
DNA 1: GCCTCAAACTCCCTTCTTCAGTTTCTGGTAGATCAAGCGATTGACAGCGTAGAATGAAGG
DNA 2: CCTTCATTCTACGCTGTCAATCGCTTGATCTACCAGAAACTGAAGAAGGGAGTTTGAGGC
B3: NRC3_wobSeed114_DR4_G17T_o1 (dsDNA)
DNA 1: GCAATACAGGGTCATCTTAGGCCAGAGTACGCACAGGCGATTGACAGCGTAGAATGAAGG
DNA 2: CCTTCATTCTACGCTGTCAATCGCCTGTGCGTACTCTGGCCTAAGATGACCCTGTATTGC
B4: NRC3_wobSeed118_DR4_G13C_o1 (dsDNA)
DNA 1: GCTTACCAAGGTCAGCTGAGGTCGTTGATCCAACTCGCGATTGACAGCGTAGAATGAAGG
DNA 2: CCTTCATTCTACGCTGTCAATCGCGAGTTGGATCAACGACCTCAGCTGACCTTGGTAAGC
B5: NRC3_wobSeed98_DR4_T9A_o1 (dsDNA)
DNA 1: GCACTAGTAGGTCAGCTGAGGTCACACACAATTCGGGCGATTGACAGCGTAGAATGAAGG
DNA 2: CCTTCATTCTACGCTGTCAATCGCCCGAATTGTGTGTGACCTCAGCTGACCTACTAGTGC
B6: NRC3_wobSeed98_DR4_T9G_o1 (dsDNA)
DNA 1: GCACTAGTGGGTCAGCTGAGGTCACACACAATTCGGGCGATTGACAGCGTAGAATGAAGG
DNA 2: CCTTCATTCTACGCTGTCAATCGCCCGAATTGTGTGTGACCTCAGCTGACCCACTAGTGC
B7: NRC3_wobSeed109_DR4_G17T_o1 (dsDNA)
DNA 1: GCCGTCCAAGGTCATATGAGGTCAGTGAAGACAGATGCGATTGACAGCGTAGAATGAAGG
DNA 2: CCTTCATTCTACGCTGTCAATCGCATCTGTCTTCACTGACCTCATATGACCTTGGACGGC
B8: NRC3_wobSeed101_DR4_T23C_o1 (dsDNA)
DNA 1: GCCCTTACGGGTCACTCCAGGTCATAGCATCGGAGTGCGATTGACAGCGTAGAATGAAGG
DNA 2: CCTTCATTCTACGCTGTCAATCGCACTCCGATGCTATGACCTGGAGTGACCCGTAAGGGC
B9: NRC3_random_hg19_439_o1 (dsDNA)
DNA 1: GCTATGGTTTGGCTGTGTCTCCATTCAAATCTCAACGCGATTGACAGCGTAGAATGAAGG
DNA 2: CCTTCATTCTACGCTGTCAATCGCGTTGAGATTTGAATGGAGACACAGCCAAACCATAGC
B10: NRC3_random_hg19_394_o1 (dsDNA)
DNA 1: GCGAGATCGAGACCATCTTGGCTAACACGGTGAAACGCGATTGACAGCGTAGAATGAAGG
DNA 2: CCTTCATTCTACGCTGTCAATCGCGTTTCACCGTGTTAGCCAAGATGGTCTCGATCTCGC
B11: NRC3_wobSeed49_DR2_T8C_o1 (dsDNA)
DNA 1: GCCAAACCAGGTCAAGAGGTCAAAGTCCGCTTCCCGGCGATTGACAGCGTAGAATGAAGG
DNA 2: CCTTCATTCTACGCTGTCAATCGCCGGGAAGCGGACTTTGACCTCTTGACCTGGTTTGGC
B12: NRC3_wobSeed88_DR3_G11T_o1 (dsDNA)
DNA 1: GCTAGCCTAGTTCATGCGGGCCAGTATAGTGTCGGCGCGATTGACAGCGTAGAATGAAGG
DNA 2: CCTTCATTCTACGCTGTCAATCGCGCCGACACTATACTGGCCCGCATGAACTAGGCTAGC
B13: NRC3_random_hg19_346_o1 (dsDNA)
DNA 1: GCGCCTTCTGCTACAGGGCAAAGGTGGCACACAAAGGCGATTGACAGCGTAGAATGAAGG
DNA 2: CCTTCATTCTACGCTGTCAATCGCCTTTGTGTGCCACCTTTGCCCTGTAGCAGAAGGCGC
B14: NRC3_random_hg19_90_o1 (dsDNA)
DNA 1: GCTGAGTATTGTAGATTCATTGTTGAGATTCTAGATGCGATTGACAGCGTAGAATGAAGG
DNA 2: CCTTCATTCTACGCTGTCAATCGCATCTAGAATCTCAACAATGAATCTACAATACTCAGC
B15: NRC3_wobSeed103_DR4_G23C_o1 (dsDNA)
DNA 1: GCGCATATAGGTAATACAAGGTCAAAGTCCGATTGTGCGATTGACAGCGTAGAATGAAGG
DNA 2: CCTTCATTCTACGCTGTCAATCGCACAATCGGACTTTGACCTTGTATTACCTATATGCGC
B16: NRC3_wobSeed116_DR4_A21G_o1 (dsDNA)
DNA 1: GCAGAATGAGGTTACCAAAGGTCAGGGAAACGCTTGGCGATTGACAGCGTAGAATGAAGG
DNA 2: CCTTCATTCTACGCTGTCAATCGCCAAGCGTTTCCCTGACCTTTGGTAACCTCATTCTGC
B17: NRC3_wobSeed113_DR4_G15C_o1 (dsDNA)
DNA 1: GCATATGTAGGTTACCTGGGGTCATTCAGACTAGGCGCGATTGACAGCGTAGAATGAAGG
DNA 2: CCTTCATTCTACGCTGTCAATCGCGCCTAGTCTGAATGACCCCAGGTAACCTACATATGC
B18: NRC3_random_hg19_412_o1 (dsDNA)
DNA 1: GCACAACAGATGCTGGAGAGGATATGGAGATCCTTTGCGATTGACAGCGTAGAATGAAGG
DNA 2: CCTTCATTCTACGCTGTCAATCGCAAAGGATCTCCATATCCTCTCCAGCATCTGTTGTGC
B19: NRC3_random_hg19_176_o1 (dsDNA)
DNA 1: GCCTGCCTGTGTTGGGACTTTGACTCCACATTTCCCGCGATTGACAGCGTAGAATGAAGG
DNA 2: CCTTCATTCTACGCTGTCAATCGCGGGAAATGTGGAGTCAAAGTCCCAACACAGGCAGGC
B20: NRC3_random_hg19_109_o1 (dsDNA)
DNA 1: GCTGGTGTTTCATCACTGTGGCAACTTCCCACCTGGGCGATTGACAGCGTAGAATGAAGG
DNA 2: CCTTCATTCTACGCTGTCAATCGCCCAGGTGGGAAGTTGCCACAGTGATGAAACACCAGC
B21: NRC3_random_hg19_185_o1 (dsDNA)
DNA 1: GCTAGTGAGTGAGTTCTCACAAGAAATGGTTGTTTAGCGATTGACAGCGTAGAATGAAGG
DNA 2: CCTTCATTCTACGCTGTCAATCGCTAAACAACCATTTCTTGTGAGAACTCACTCACTAGC

Experiments:
RARg:RXRa = RARg:RXRa (Homo sapiens, UniProt P13631;P19793 full;full); test: no ligand; PBM; 270 nM : 90 nM RXRa; PBS pH 7.4, 2% milk, 0.02% Triton X-100, 1 mM DTT, BSA, 0.4 mg/ml salmon testes DNA; details: tags: His kept;His cleaved; copies: 1;1; label: surface-attached array probe
Summary of the method: (§1)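 Binding buffer was PBS pH 7.4 with 2% milk, 0.02% Triton X-100, 1 mM DTT, 0.2 mg/mL BSA and 0.4 mg/ml salmon testes DNA. In it, ligand-free nuclear receptor dimers were incubated 1 h on custom Agilent 4×180K protein-binding microarrays carrying double-stranded probes. Antibodies against each partner (one per run) detected binding, and z-scores were calculated against random background probes after regression normalization of scanned fluorescence.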

LXRa:RXRa = LXRa:RXRa (Homo sapiens, UniProt Q13133;P19793 full;full); test: as above; details: tags: His kept;His cleaved; copies: 1;1; label: surface-attached array probe
Sequence of LXRa:RXRa (Q13133 whole entry, chain 1 of 2): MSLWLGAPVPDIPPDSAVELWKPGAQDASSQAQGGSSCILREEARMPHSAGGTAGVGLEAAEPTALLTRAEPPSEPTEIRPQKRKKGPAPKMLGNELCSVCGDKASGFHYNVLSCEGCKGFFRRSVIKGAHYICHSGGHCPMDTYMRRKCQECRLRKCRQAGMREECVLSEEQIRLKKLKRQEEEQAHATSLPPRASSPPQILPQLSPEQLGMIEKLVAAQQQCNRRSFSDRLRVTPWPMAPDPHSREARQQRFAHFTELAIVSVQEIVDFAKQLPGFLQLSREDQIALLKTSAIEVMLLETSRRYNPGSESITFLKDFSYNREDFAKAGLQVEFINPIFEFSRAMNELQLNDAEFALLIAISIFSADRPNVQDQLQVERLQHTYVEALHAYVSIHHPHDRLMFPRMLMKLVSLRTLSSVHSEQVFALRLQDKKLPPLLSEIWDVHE
Sequence of LXRa:RXRa (P19793 whole entry, chain 2 of 2): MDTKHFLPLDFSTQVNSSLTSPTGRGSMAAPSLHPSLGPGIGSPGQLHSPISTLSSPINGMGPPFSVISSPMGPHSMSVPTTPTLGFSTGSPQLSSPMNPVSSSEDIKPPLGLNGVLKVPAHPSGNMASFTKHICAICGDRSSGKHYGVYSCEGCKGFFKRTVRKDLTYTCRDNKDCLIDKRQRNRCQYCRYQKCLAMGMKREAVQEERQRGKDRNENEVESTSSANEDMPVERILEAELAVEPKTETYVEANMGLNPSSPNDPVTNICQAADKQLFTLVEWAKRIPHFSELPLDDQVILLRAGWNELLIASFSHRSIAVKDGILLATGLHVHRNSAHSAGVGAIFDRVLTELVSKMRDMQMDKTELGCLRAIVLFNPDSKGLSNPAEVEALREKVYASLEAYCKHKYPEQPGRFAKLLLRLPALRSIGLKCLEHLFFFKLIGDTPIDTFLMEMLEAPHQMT
Summary of the method: as §1

THRa:RXRa = THRa:RXRa (Homo sapiens, UniProt P10827;P19793 full;full); test: no ligand; PBM; 90 nM : 90 nM RXRa; PBS pH 7.4, 2% milk, 0.02% Triton X-100, 1 mM DTT, BSA, 0.4 mg/ml salmon testes DNA; details: tags: His kept;His cleaved; copies: 1;1; label: surface-attached array probe
Sequence of THRa:RXRa (P10827 other isoform, or with tags, fused parts or gaps, chain 1 of 2): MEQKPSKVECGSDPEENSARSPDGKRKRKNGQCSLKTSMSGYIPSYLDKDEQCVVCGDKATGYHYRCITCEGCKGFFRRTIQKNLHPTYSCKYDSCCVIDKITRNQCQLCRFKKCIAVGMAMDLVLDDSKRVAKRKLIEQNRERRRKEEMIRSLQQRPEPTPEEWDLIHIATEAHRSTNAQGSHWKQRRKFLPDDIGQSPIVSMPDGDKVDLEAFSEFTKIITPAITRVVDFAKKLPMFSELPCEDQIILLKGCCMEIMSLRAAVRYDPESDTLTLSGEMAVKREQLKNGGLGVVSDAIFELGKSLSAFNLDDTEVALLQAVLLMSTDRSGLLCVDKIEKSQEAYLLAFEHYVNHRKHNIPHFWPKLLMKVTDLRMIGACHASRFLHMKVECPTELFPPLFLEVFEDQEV
Sequence of THRa:RXRa (P19793 whole entry, chain 2 of 2): as the sequence (P19793 whole entry, chain 2 of 2) above
RARb:RXRa = RARb:RXRa (Homo sapiens, UniProt P10826;P19793 full;full); test: no ligand; PBM; 270 nM : 90 nM RXRa; PBS pH 7.4, 2% milk, 0.02% Triton X-100, 1 mM DTT, BSA, 0.4 mg/ml salmon testes DNA; details: tags: His kept;His cleaved; copies: 1;1; label: surface-attached array probe
Summary of the method: as §1

PXR:RXRa = PXR:RXRa (Homo sapiens, UniProt O75469;P19793 full;full); test: as above; details: tags: His kept;His cleaved; copies: 1;1; label: surface-attached array probe
Summary of the method: as §1

VDR:RXRa = VDR:RXRa (Homo sapiens, UniProt P11473;P19793 full;full); test: as above; details: tags: His kept;His cleaved; copies: 1;1; label: surface-attached array probe
Sequence of VDR:RXRa (P11473 whole entry, chain 1 of 2): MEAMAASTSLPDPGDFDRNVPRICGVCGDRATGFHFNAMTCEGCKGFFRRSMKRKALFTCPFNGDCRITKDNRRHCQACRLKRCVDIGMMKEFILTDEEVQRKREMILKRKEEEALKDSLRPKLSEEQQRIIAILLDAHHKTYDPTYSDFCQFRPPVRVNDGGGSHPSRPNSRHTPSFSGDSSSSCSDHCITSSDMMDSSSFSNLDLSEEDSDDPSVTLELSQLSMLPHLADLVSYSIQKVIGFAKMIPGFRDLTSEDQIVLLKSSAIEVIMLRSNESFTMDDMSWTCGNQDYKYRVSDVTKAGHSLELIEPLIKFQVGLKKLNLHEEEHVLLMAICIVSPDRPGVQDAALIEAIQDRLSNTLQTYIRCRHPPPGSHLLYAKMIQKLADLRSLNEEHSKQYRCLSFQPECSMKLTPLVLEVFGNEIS
Sequence of VDR:RXRa (P19793 whole entry, chain 2 of 2): as the sequence (P19793 whole entry, chain 2 of 2) above
Summary of the method: as §1

LXRb:RXRa = LXRb:RXRa (Homo sapiens, UniProt P55055;P19793 full;full); test: as above; details: tags: His kept;His cleaved; copies: 1;1; label: surface-attached array probe
Sequence of LXRb:RXRa (P55055 whole entry, chain 1 of 2): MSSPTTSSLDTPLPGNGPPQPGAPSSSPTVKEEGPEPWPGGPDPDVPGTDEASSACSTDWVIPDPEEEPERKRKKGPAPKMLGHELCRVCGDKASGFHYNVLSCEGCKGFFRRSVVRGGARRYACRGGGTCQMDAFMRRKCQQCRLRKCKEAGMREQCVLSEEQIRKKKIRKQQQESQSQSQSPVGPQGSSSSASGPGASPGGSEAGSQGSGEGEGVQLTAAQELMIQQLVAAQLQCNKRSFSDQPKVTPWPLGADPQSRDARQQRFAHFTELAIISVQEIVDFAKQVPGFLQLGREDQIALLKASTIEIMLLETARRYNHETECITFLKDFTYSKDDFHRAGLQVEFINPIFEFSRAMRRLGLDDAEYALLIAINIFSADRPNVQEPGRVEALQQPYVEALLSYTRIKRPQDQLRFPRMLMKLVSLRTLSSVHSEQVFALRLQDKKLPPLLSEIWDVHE
Sequence of LXRb:RXRa (P19793 whole entry, chain 2 of 2): as the sequence (P19793 whole entry, chain 2 of 2) above
Summary of the method: as §1

FXR:RXRa = FXR:RXRa (Homo sapiens, UniProt Q96RI1;P19793 full;full); test: as above; details: tags: His kept;His cleaved; copies: 1;1; label: surface-attached array probe
Sequence of FXR:RXRa (Q96RI1 whole entry, chain 1 of 2): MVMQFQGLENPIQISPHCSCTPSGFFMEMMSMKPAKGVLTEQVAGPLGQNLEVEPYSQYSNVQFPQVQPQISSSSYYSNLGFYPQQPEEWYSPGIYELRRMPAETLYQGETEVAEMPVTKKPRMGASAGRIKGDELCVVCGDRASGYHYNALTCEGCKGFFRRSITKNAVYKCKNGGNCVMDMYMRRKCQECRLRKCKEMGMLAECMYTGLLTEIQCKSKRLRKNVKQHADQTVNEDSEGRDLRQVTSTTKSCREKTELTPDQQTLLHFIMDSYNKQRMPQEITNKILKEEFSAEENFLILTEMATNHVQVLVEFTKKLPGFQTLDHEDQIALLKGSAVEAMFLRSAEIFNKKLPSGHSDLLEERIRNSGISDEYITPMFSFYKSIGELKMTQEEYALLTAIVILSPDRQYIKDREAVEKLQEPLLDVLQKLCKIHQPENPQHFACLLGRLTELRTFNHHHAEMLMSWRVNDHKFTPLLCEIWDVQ
Sequence of FXR:RXRa (P19793 whole entry, chain 2 of 2): as the sequence (P19793 whole entry, chain 2 of 2) above
Summary of the method: as §1

PPARa:RXRa = PPARa:RXRa (Homo sapiens, UniProt Q07869;P19793 full;full); test: as above; details: tags: GST kept;His cleaved; copies: 1;1; label: surface-attached array probe
Summary of the method: as §1

| Binder | binding signal (LXRa:RXRa) | binding signal (THRa:RXRa) | binding signal (PXR:RXRa) | also measured |
| --- | --- | --- | --- | --- |
| B1 | 6.65 PBM z-score against 500 random probes | 5.06 PBM z-score against 500 random probes |  | binding signal (RARg:RXRa): 4.49 PBM z-score against 500 random probes |
| B2 | 0.47 PBM z-score against 500 random probes | -0.02 PBM z-score against 500 random probes |  | binding signal (RARb:RXRa): -0.02 PBM z-score against 500 random probes |
| B3 | 7.35 PBM z-score against 500 random probes | 5.49 PBM z-score against 500 random probes |  |  |
| B4 |  | 5.55 PBM z-score against 500 random probes | 6.89 PBM z-score against 500 random probes | binding signal (VDR:RXRa): 6.65 PBM z-score against 500 random probes |
| B5 |  | 5.78 PBM z-score against 500 random probes | 7.12 PBM z-score against 500 random probes | binding signal (VDR:RXRa): 6.98 PBM z-score against 500 random probes |
| B6 |  | 5.78 PBM z-score against 500 random probes | 6.95 PBM z-score against 500 random probes | binding signal (VDR:RXRa): 6.63 PBM z-score against 500 random probes |
| B7 | 7.97 PBM z-score against 500 random probes | 5.58 PBM z-score against 500 random probes |  |  |
| B8 | 8.42 PBM z-score against 500 random probes | 5.34 PBM z-score against 500 random probes |  | binding signal (LXRb:RXRa): 7.16 PBM z-score against 500 random probes |
| B9 |  | 0.36 PBM z-score against 500 random probes | 0.5 PBM z-score against 500 random probes |  |
| B10 |  | -0.09 PBM z-score against 500 random probes | -0.39 PBM z-score against 500 random probes |  |
| B11 |  | 4.82 PBM z-score against 500 random probes | 6.81 PBM z-score against 500 random probes | binding signal (FXR:RXRa): 7.9 PBM z-score against 500 random probes |
| B12 | 0.09 PBM z-score against 500 random probes | 0.14 PBM z-score against 500 random probes |  | binding signal (RARg:RXRa): 0.41 PBM z-score against 500 random probes |
| B13 | 0 PBM z-score against 500 random probes | 0.22 PBM z-score against 500 random probes |  |  |
| B14 |  | -0.22 PBM z-score against 500 random probes | -0.1 PBM z-score against 500 random probes |  |
| B15 | 7 PBM z-score against 500 random probes | 4.92 PBM z-score against 500 random probes |  |  |
| B16 | 9.08 PBM z-score against 500 random probes | 5.21 PBM z-score against 500 random probes |  | binding signal (LXRb:RXRa): 8.32 PBM z-score against 500 random probes |
| B17 | 8.75 PBM z-score against 500 random probes | 5.46 PBM z-score against 500 random probes |  | binding signal (LXRb:RXRa): 8.08 PBM z-score against 500 random probes |
| B18 | -0.73 PBM z-score against 500 random probes | -0.82 PBM z-score against 500 random probes |  | binding signal (FXR:RXRa): -0.81 PBM z-score against 500 random probes; binding signal (LXRb:RXRa): -0.93 PBM z-score against 500 random probes |
| B19 | -0.07 PBM z-score against 500 random probes | -0.11 PBM z-score against 500 random probes |  | binding signal (PPARa:RXRa): 0 PBM z-score against 500 random probes; binding signal (FXR:RXRa): -0.18 PBM z-score against 500 random probes |
| B20 |  | -0.41 PBM z-score against 500 random probes | -0.28 PBM z-score against 500 random probes |  |
| B21 |  | -0.23 PBM z-score against 500 random probes | -0.01 PBM z-score against 500 random probes |  |
